Consider four substances from article PMC7373187.

For assay [1], the target named is His6-GapR_(1–69), truncated GapR lacking the entire helix H3 (C. crescentus). In words: cross-linking; 400 mM EDC plus 100 mM NHS, 2 h, room temperature; proteins at 50 μM (monomer); 1 M NaCl and 1 mM EDTA (no DNA bound); SDS-PAGE, silver stained.
Assay [2] shares this target. In words: SEC; Superdex 75 10/300 GL, 1 M NaCl and 1 mM EDTA, proteins separated from copurified DNA; His6-GapR1-89 at 50 μM, His6-GapR1-69 at 125 μM, His6-GapR1-76 at 100 μM (monomer).
For assay [3], the target named is His6-GapR_(1–76), truncated GapR lacking the hydrophobic patch of helix H3 (C. crescentus). In words: cross-linking; 400 mM EDC plus 100 mM NHS, 2 h, room temperature; proteins at 50 μM (monomer); 1 M NaCl and 1 mM EDTA (no DNA bound); SDS-PAGE, silver stained.
Assay [4] shares this target. Briefly: SEC; Superdex 75 10/300 GL, 1 M NaCl and 1 mM EDTA, proteins separated from copurified DNA; His6-GapR1-89 at 50 μM, His6-GapR1-69 at 125 μM, His6-GapR1-76 at 100 μM (monomer).
The target in assay [5] is untagged GapR_(1–89) (C. crescentus). In words: cross-linking; 400 mM EDC plus 100 mM NHS, 2 h, room temperature; proteins at 50 μM (monomer); 150 mM NaCl, 10% glycerol, 20 mM HEPES (for tagged and untagged GapR1-89 also 50 mM sodium phosphate); SDS-PAGE, silver stained.
The target of assay [6] is His6-GapR_(1–89), full-length wild-type GapR of Caulobacter crescentus (C. crescentus). In words: cross-linking; 400 mM EDC plus 100 mM NHS, 2 h, room temperature; proteins at 50 μM (monomer); 1 M NaCl and 1 mM EDTA (no DNA bound); SDS-PAGE, silver stained.
Assay [7] has the same target. Briefly: SEC; Superdex 75 10/300 GL, 1 M NaCl and 1 mM EDTA, proteins separated from copurified DNA; His6-GapR1-89 at 50 μM, His6-GapR1-69 at 125 μM, His6-GapR1-76 at 100 μM (monomer).
For assay [8] the target is unchanged. In words: cross-linking; 400 mM EDC plus 100 mM NHS, 2 h, room temperature; proteins at 50 μM (monomer); 150 mM NaCl, 10% glycerol, 20 mM HEPES (for tagged and untagged GapR1-89 also 50 mM sodium phosphate); SDS-PAGE, silver stained.

In the case of “His6-GapR_(1–69), truncated GapR lacking the entire helix H3 (domain or fragment)”, the stoichiometry N in assay [1] and in assay [2] was 2 throughout.

Take “His6-GapR_(1–76), truncated GapR lacking the hydrophobic patch of helix H3 (domain or fragment)”: the stoichiometry N in assay [3] and in assay [4] was 2 each time.

Regarding untagged GapR_(1–89) (natural protein), in assay [5], the stoichiometry N worked out at 4.

On to “His6-GapR_(1–89), full-length wild-type GapR of Caulobacter crescentus (natural protein)”, for which the stoichiometry N in assay [6], in assay [7] and in assay [8] was 4 throughout.
